# Literature values in PMC4741438, “Targeting the SIN3A-PF1 interaction inhibits epithelial to mesenchymal transition and maintenance of a stem cell phenotype in triple negative breast cancer” (Oncotarget, 2015).
# B1: PF1: plant homeodomain (PHD)-containing protein PF1 (PHF12) (protein)
# chain: MWEKMETKTIVYDLDTSGGLMEQIQALLAPPKTDEAEKRSRKPEKEPRRSGRATNHDSCDSCKEGGDLLCCDHCPAAFHLQCCNPPLSEEMLPPGEWMCHRCTVRRKKREQKKELGHVNGLVDKSGKRTTSPSSDTDLLDRSASKTELKAIAHARILERRASRPGTPTSSASTETPTSEQNDVDEDIIDVDEEPVAAEPDYVQPQLRRPFELLIAAAMERNPTQFQLPNELTCTTALPGSSKRRRKEETTGKNVKKTQHELDHNGLVPLPVKVCFTCNRSCRVAPLIQCDYCPLLFHMDCLEPPLTAMPLGRWMCPNHIEHVVLNQKNMTLSNRCQVFDRFQDTVSQHVVKVDFLNRIHKKHPPNRRVLQSVKRRSLKVPDAIKSQYQFPPPLIAPAAIRDGELICNGIPEESQMHLLNSEHLATQAEQQEWLCSVVALQCSILKHLSAKQMPSHWDSEQTEKADIKPVIVTDSSVTTSLQTADKTPTPSHYPLSCPSGISTQNSLSCSPPHQSPALEDIGCSSCAEKSKKTPCGTANGPVNTEVKANGPHLYSSPTDSTDPRRLPGANTPLPGLSHRQGWPRPLTPPAAGGLQNHTVGIIVKTENATGPSSCPQRSLVPVPSLPPSIPSSCASIENTSTLQRKTVQSQIGPPLTDSRPLGSPPNATRVLTPPQAAGDGILATTANQRFSSPAPSSDGKVSPGTLSIGSALTVPSFPANSTAMVDLTNSLRAFMDVNGEIEINMLDEKLIKFLALQRIHQLFPSRVQPSPGSVGTHQLASGGHHIEVQRKEVQARAVFYPLLGLGGAVNMCYRTLYIGTGADMDVCLTNYGHCNYVSGKHACIFYDENTKHYELLNYSEHGTTVDNVLYSCDFSEKTPPTPPSSIVAKVQSVIRRRRHQKQDEEPSEEAAMMSSQAQGPQRRPCNCKASSSSLIGGSGAGWEGTALLHHGSYIKLGCLQFVFSITEFATKQPKGDASLLQDGVLAEKLSLKPHQGPVLRSNSVP
# System: PAH2
# Conditions: in comparison to MAD
# Description: The PAH2 domain of SIN3 mediates interactions with a restricted subset of factors containing a conserved SIN3 interaction domain (SID) with homology to amino acids 5-24 of the prototypic PAH2-binding protein, the transcriptional repressor MAD [19-22]. […] Therefore, the use of small molecules based on in silico modeling of the MAD-SID sequence to prevent recruitment of the PF1-containing complexes represents a new and potentially clinically effective therapeutic strategy. While it cannot be ruled out that the effects of SID treatment act through inhibiting the interaction of additional PAH2-binding proteins with SIN3, the finding that PF1 kn ...
molecule,measurement,value
B1,"affinity for PAH2, fold lower than MAD",10 fold
